The results in this text go back to patent publication US20050003403A1 (IBC PHARMACEUTICALS, published 2005).

Experiment [1] addresses T1, carcinoembryonic antigen (CEA) (UniProt P06731 35-685, limits assumed).
T1 construct: Coated on ELISA wells (0.5 ug/well), injected in BIAcore, or mixed in solution for SE-HPLC
T1 sequence (looked up): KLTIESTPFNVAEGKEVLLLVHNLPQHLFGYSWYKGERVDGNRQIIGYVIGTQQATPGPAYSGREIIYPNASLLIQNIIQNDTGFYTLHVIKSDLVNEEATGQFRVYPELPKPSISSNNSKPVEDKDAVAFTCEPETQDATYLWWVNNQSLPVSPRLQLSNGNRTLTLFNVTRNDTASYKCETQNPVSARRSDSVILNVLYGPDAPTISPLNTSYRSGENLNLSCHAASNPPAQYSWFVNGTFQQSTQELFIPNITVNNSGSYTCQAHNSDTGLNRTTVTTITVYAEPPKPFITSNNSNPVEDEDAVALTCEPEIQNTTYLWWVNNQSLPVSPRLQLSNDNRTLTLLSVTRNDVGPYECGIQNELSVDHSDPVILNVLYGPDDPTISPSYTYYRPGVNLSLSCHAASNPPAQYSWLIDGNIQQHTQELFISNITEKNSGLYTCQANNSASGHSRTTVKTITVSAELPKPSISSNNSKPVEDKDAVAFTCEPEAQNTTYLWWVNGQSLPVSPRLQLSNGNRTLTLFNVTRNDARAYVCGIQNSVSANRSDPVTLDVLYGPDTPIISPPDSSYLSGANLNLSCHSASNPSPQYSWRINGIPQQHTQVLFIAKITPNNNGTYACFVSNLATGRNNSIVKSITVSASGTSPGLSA
Description: competitive ELISA, CEA-coated wells (0.5 ug/well), competitor HRP-conjugated hMN-14 IgG (1 nM). How it is done: HRP-conjugated hMN14 IgG (1 nM) was mixed with either BS14HP, BS1.5H (a bispecific diabody, monovalent for CEA and monovalent for HSG, derived from the same variable domains as BS14HP) or hMN14 F(ab′)₂ at concentrations ranging from 1-250 nM, prior to incubation in CEA-coated (0.5 μg/well) wells. The % inhibition is plotted vs. nM concentration of sample.
The CEA binding of BS14HP was analyzed in a competitive ELISA and compared to BS1.5H and hMN-14 F(ab′)₂, which have one and two CEA binding groups, respectively (FIG. 6). HRP-conjugated hMN-14 IgG (1 nM) was mixed with either BS14HP, BS1.5H or hMN-14 F(ab′)₂ at concentrations ranging from 1 to 250 nM, prior to incubation in CEA-coated (0.5 μg/well) wells. The IC₅₀ for BS14HP was 2.7 nM which is close to 2.0 nM for hMN14 F(ab′)₂.
(In general: In an ELISA, binding on a coated surface is turned into a signal by an enzyme label.)

Experiment [2] deals with T1, carcinoembryonic antigen (CEA). Description: BIAcore, hBS14 captured on HSG sensorchip, then CEA injected. A general note: Surface plasmon resonance follows binding to a sensor surface in real time, without labels.

B1: BS1.5H (bispecific antibody)
chain 1: MEVQLVESGGDLVKPGGSLKLSCAASGFTFSIYTMSWLRQTPGKGLEWVATLSGDGDDIYYPDSVKGRFTISRDNAKNSLYLQMNSLRAEDTALYYCARVRLGDWDFDVWGQGTTVSVSSGGGGSDIQLTQSPSSLSASVGDRVTITCKASQDVGTSVAWYQQKPGKAPKLLIYWTSTRHTGVPSRFSGSGSGTDFTFTISSLQPEDIATYYCQQYSLYRSFGQGTKVEIKRLEHHHHHH
chain 2: MEVQLVESGGGVVQPGRSLRLSCSASGFDFTTYWMSWVRQAPGKGLEWIGEIHPDSSTINYAPSLKDRFTISRDNAKNTLFLQMDSLRPEDTGVYFCASLYFGFPWFAYWGQGTPVTVSGGGGSDIVMTQSPSSLAVSPGERVTLTCKSSQSLFNSRTRKNYLGWYQQKPGQSPKLLIYWASTRESGVPDRFSGSGSGTDFTLTINSLQAEDVAVYYCTQVYYLCTFGAGTKLELKRLEHHHHHH
One may read the IC50 as the concentration that inhibits the measured activity by half. A higher IC50 goes with a need for much substance. Turning to B1, in experiment [1], the IC50 is 10 nM.

B2: BS14HP (bispecific antibody)
chain 1: EAEAEFMEVQLVESGGDLVKPGGSLKLSCAASGFTFSIYTMSWLRQTPGKGLEWVATLSGDGDDIYYPDSVKGRFTISRDNAKNSLYLQMNSLRAEDTALYYCARVRLGDWDFDVWGQGTTVSVSSGGGGSDIQLTQSPSSLSASVGDRVTITCKASQDVGTSVAWYQQKPGKAPKLLIYWTSTRHTGVPSRFSGSGSGTDFTFTISSLQPEDIATYYCQQYSLYRSFGQGTKVEIKRLEGGGSEVQLVESGGGVVQPGRSLRLSCSASGFDFTTYWMSWVRQAPGKGLEWIGEIHPDSSTINYAPSLKDRFTISRDNAKNTLFLQMDSLRPEDTGVYFCASLYFGFPWFAYWGQGTPVTVSVDHHHHHH
chain 2: EAEAEFDIQLTQSPSSLSASVGDRVTITCKASQDVGTSVAWYQQKPGKAPKLLIYWTSTRHTGVPSRFSGSGSGTDFTFTISSLQPEDIATYYCQQYSLYRSFGQGTKVEIKRGGGQFMEVQLVESGGGVVQPGRSLRLSCSASGFDFTTYWMSWVRQAPGKGLEWIGEIHPDSSTINYAPSLKDRFTISRDNAKNTLFLQMDSLRPEDTGVYFCASLYFGFPWFAYWGQGTPVTVSGGGGSDIVMTQSPSSLAVSPGERVTLTCKSSQSLFNSRTRKNYLGWYQQKPGQSPKLLIYWASTRESGVPDRFSGSGSGTDFTLTINSLQAEDVAVYYCTQVYYLCTFGAGTKLELKRLDHHHHHH
notes: Non-covalent heterodimer with two CEA sites and one HSG site; The alpha-factor signal peptide is removed on secretion; also called bispecific trivalent heterodimer; hMN-14 x hMN-14 x 679 produced in Pichia pastoris
Regarding B2, the IC50 in experiment [1] stood at 2.7 nM.

B3: hMN-14 F(ab')2 (other)
VH: EVQLVESGGGVVQPGRSLRLSCSASGFDFTTYWMSWVRQAPGKGLEWIGEIHPDSSTINYAPSLKDRFTISRDNAKNTLFLQMDSLRPEDTGVYFCASLYFGFPWFAYWGQGTPVTVS
VL: DIQLTQSPSSLSASVGDRVTITCKASQDVGTSVAWYQQKPGKAPKLLIYWTSTRHTGVPSRFSGSGSGTDFTFTISSLQPEDIATYYCQQYSLYRSFGQGTKVEIKR
notes: F(ab')2 of humanized anti-CEA hMN-14, 100 kDa; The VH in the construct ends ...VTVS
B3 returned an IC50 in experiment [1] of 2 nM.

B4: hBS14 (bispecific antibody)
chain 1: MEVQLVESGGDLVKPGGSLKLSCAASGFTFSIYTMSWLRQTPGKGLEWVATLSGDGDDIYYPDSVKGRFTISRDNAKNSLYLQMNSLRAEDTALYYCARVRLGDWDFDVWGQGTTVSVSSGGGGSDIQLTQSPSSLSASVGDRVTITCKASQDVGTSVAWYQQKPGKAPKLLIYWTSTRHTGVPSRFSGSGSGTDFTFTISSLQPEDIATYYCQQYSLYRSFGQGTKVEIKRLEGGGSEVQLVESGGGVVQPGRSLRLSCSASGFDFTTYWMSWVRQAPGKGLEWIGEIHPDSSTINYAPSLKDRFTISRDNAKNTLFLQMDSLRPEDTGVYFCASLYFGFPWFAYWGQGTPVTVSVDHHHHHH
chain 2: MDIQLTQSPSSLSASVGDRVTITCKASQDVGTSVAWYQQKPGKAPKLLIYWTSTRHTGVPSRFSGSGSGTDFTFTISSLQPEDIATYYCQQYSLYRSFGQGTKVEIKRGGGQFMEVQLVESGGGVVQPGRSLRLSCSASGFDFTTYWMSWVRQAPGKGLEWIGEIHPDSSTINYAPSLKDRFTISRDNAKNTLFLQMDSLRPEDTGVYFCASLYFGFPWFAYWGQGTPVTVSGGGGSDIVMTQSPSSLAVSPGERVTLTCKSSQSLFNSRTRKNYLGWYQQKPGQSPKLLIYWASTRESGVPDRFSGSGSGTDFTLTINSLQAEDVAVYYCTQVYYLCTFGAGTKLELKRLDHHHHHH
notes: 79.4 kDa heterodimer of polypeptide 1 and polypeptide 2, produced in SP2/0, YB2/0 or NS0 cells; Bivalent for CEA, monovalent for HSG; also called bispecific trivalent heterodimer expressed in myeloma cells; hMN-14 x hMN-14 x 679
Regarding B4, the binding result in experiment [2] was “binds”.
